The supplement of paper PMC9112550, “Optimization of the antimicrobial peptide Bac7 by deep mutational scanning” (BMC Biology, 2022)

Tested on: Escherichia coli TOP10
Test: shrunken log2 fold change of peptide-encoding DNA abundance (4.5 h post-induction vs induction); higher = less antimicrobial activity (less host growth inhibition)
Settings: time post-induction: 4.5 h; library: site-saturation at positions 5, 18, 19, 20
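Note: peptides expressed intracellularly from a pBAD plasmid library in pooled LB shake-flask culture, induced with 0.3% L-arabinose, DNA abundance read by NGS, three biological replicates, DESeq2 with apeglm shrinkage.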

Sequence | shrunken log2 fold change
RRIRLRPPRLPRPRPRPLWSPRP | 0.0537
RRIRLRPPRLPRPRPRPLYFPRP | -0.646
RRIRLRPPRLPRPRPRPMCQPRP | 0.0751
RRIRLRPPRLPRPRPRPMCWPRP | 0.0663
RRIRLRPPRLPRPRPRPMDKPRP | -0.296
RRIRLRPPRLPRPRPRPMDYPRP | -0.202
RRIRLRPPRLPRPRPRPMERPRP | -0.00192
RRIRLRPPRLPRPRPRPMGLPRP | 0.0182
RRIRLRPPRLPRPRPRPMIFPRP | 0.0629
RRIRLRPPRLPRPRPRPMIRPRP | -0.154
RRIRLRPPRLPRPRPRPMKIPRP | -0.028
RRIRLRPPRLPRPRPRPMMCPRP | 0.00205
RRIRLRPPRLPRPRPRPMMGPRP | -0.0316
RRIRLRPPRLPRPRPRPMQDPRP | 0.0525
RRIRLRPPRLPRPRPRPMQIPRP | 0.057
RRIRLRPPRLPRPRPRPMRAPRP | 0.862
RRIRLRPPRLPRPRPRPMSGPRP | -0.0068
RRIRLRPPRLPRPRPRPMSQPRP | -0.219
RRIRLRPPRLPRPRPRPMYGPRP | -0.179
RRIRLRPPRLPRPRPRPNCTPRP | -0.24
RRIRLRPPRLPRPRPRPNDLPRP | -0.00842
RRIRLRPPRLPRPRPRPNDMPRP | -0.258
RRIRLRPPRLPRPRPRPNDNPRP | -0.557
RRIRLRPPRLPRPRPRPNECPRP | -0.0751
RRIRLRPPRLPRPRPRPNFHPRP | -0.301

Sequence | shrunken log2 fold change
RRIRLRPPRLPRPRPRPNGQPRP | 0.00827
RRIRLRPPRLPRPRPRPNGYPRP | -0.315
RRIRLRPPRLPRPRPRPNIPPRP | -0.823
RRIRLRPPRLPRPRPRPNLPPRP | -0.508
RRIRLRPPRLPRPRPRPNMGPRP | -0.25
RRIRLRPPRLPRPRPRPNNHPRP | -0.761
RRIRLRPPRLPRPRPRPNPNPRP | 0.395
RRIRLRPPRLPRPRPRPNQHPRP | -0.222
RRIRLRPPRLPRPRPRPNTAPRP | -0.248
RRIRLRPPRLPRPRPRPPAFPRP | 0.144
RRIRLRPPRLPRPRPRPPAKPRP | 0.529
RRIRLRPPRLPRPRPRPPCTPRP | 0.036
RRIRLRPPRLPRPRPRPPHNPRP | 0.504
RRIRLRPPRLPRPRPRPPINPRP | -0.00991
RRIRLRPPRLPRPRPRPPITPRP | -0.213
RRIRLRPPRLPRPRPRPPKVPRP | 0.287
RRIRLRPPRLPRPRPRPPLMPRP | 0.313
RRIRLRPPRLPRPRPRPPLNPRP | 0.0486
RRIRLRPPRLPRPRPRPPMTPRP | 0.907
RRIRLRPPRLPRPRPRPPMVPRP | -0.192
RRIRLRPPRLPRPRPRPPPIPRP | 0.935
RRIRLRPPRLPRPRPRPPQCPRP | -0.313
RRIRLRPPRLPRPRPRPPQDPRP | 0.348
RRIRLRPPRLPRPRPRPPRAPRP | 0.875
RRIRLRPPRLPRPRPRPPRIPRP | 0.0531

Sequence | shrunken log2 fold change
RRIRLRPPRLPRPRPRPPRPPRP | 0.782
RRIRLRPPRLPRPRPRPPSHPRP | 0.0809
RRIRLRPPRLPRPRPRPPSIPRP | -0.0597
RRIRLRPPRLPRPRPRPPSRPRP | 0.175
RRIRLRPPRLPRPRPRPPVHPRP | 0.0348
RRIRLRPPRLPRPRPRPPVKPRP | -0.0732
RRIRLRPPRLPRPRPRPPVNPRP | 0.168
RRIRLRPPRLPRPRPRPPWSPRP | 0.259
RRIRLRPPRLPRPRPRPPYEPRP | -0.468
RRIRLRPPRLPRPRPRPQCYPRP | -0.172
RRIRLRPPRLPRPRPRPQDPPRP | -0.101
RRIRLRPPRLPRPRPRPQFDPRP | -0.293
RRIRLRPPRLPRPRPRPQGDPRP | -0.0165
RRIRLRPPRLPRPRPRPQHAPRP | -0.0395
RRIRLRPPRLPRPRPRPQHRPRP | -0.0199
RRIRLRPPRLPRPRPRPQHTPRP | -0.418
RRIRLRPPRLPRPRPRPQHWPRP | -0.044
RRIRLRPPRLPRPRPRPQICPRP | -0.0895
RRIRLRPPRLPRPRPRPQIQPRP | -0.0697
RRIRLRPPRLPRPRPRPQIRPRP | -0.0176
RRIRLRPPRLPRPRPRPQMAPRP | -0.0634
RRIRLRPPRLPRPRPRPQNEPRP | -0.459
RRIRLRPPRLPRPRPRPQNYPRP | -0.626
RRIRLRPPRLPRPRPRPQPCPRP | -0.215
RRIRLRPPRLPRPRPRPQQDPRP | -0.29

Sequence | shrunken log2 fold change
RRIRLRPPRLPRPRPRPQQIPRP | -0.878
RRIRLRPPRLPRPRPRPQQSPRP | -0.047
RRIRLRPPRLPRPRPRPQSAPRP | -0.372
RRIRLRPPRLPRPRPRPQTFPRP | -0.118
RRIRLRPPRLPRPRPRPQVYPRP | -0.11
RRIRLRPPRLPRPRPRPRADPRP | 2.32
RRIRLRPPRLPRPRPRPRAGPRP | 0.557
RRIRLRPPRLPRPRPRPRALPRP | 2.21
RRIRLRPPRLPRPRPRPRDEPRP | 0.162
RRIRLRPPRLPRPRPRPRDWPRP | 0.847
RRIRLRPPRLPRPRPRPRFNPRP | -0.223
RRIRLRPPRLPRPRPRPRGHPRP | 0.078
RRIRLRPPRLPRPRPRPRHGPRP | 0.414
RRIRLRPPRLPRPRPRPRHKPRP | 0.258
RRIRLRPPRLPRPRPRPRKEPRP | 0.325
RRIRLRPPRLPRPRPRPRKNPRP | 0.0496
RRIRLRPPRLPRPRPRPRKVPRP | 0.0909
RRIRLRPPRLPRPRPRPRLMPRP | -0.197
RRIRLRPPRLPRPRPRPRLRPRP | 0.285
RRIRLRPPRLPRPRPRPRMEPRP | 0.123
RRIRLRPPRLPRPRPRPRNIPRP | -0.424
RRIRLRPPRLPRPRPRPRNLPRP | -0.0507
RRIRLRPPRLPRPRPRPRNWPRP | 0.751
RRIRLRPPRLPRPRPRPRPRPRP | 0.823
RRIRLRPPRLPRPRPRPRRDPRP | 0.2

Sequence | shrunken log2 fold change
RRIRLRPPRLPRPRPRPRRYPRP | -0.00737
RRIRLRPPRLPRPRPRPRSIPRP | -0.247
RRIRLRPPRLPRPRPRPRSLPRP | 0.0255
RRIRLRPPRLPRPRPRPRSTPRP | -0.00899
RRIRLRPPRLPRPRPRPRTLPRP | -0.166
RRIRLRPPRLPRPRPRPRTVPRP | 1.24
RRIRLRPPRLPRPRPRPRWEPRP | 0.0629
RRIRLRPPRLPRPRPRPRYAPRP | 0.00198
RRIRLRPPRLPRPRPRPRYMPRP | -0.982
RRIRLRPPRLPRPRPRPRYRPRP | -0.374
RRIRLRPPRLPRPRPRPRYTPRP | -0.0696
RRIRLRPPRLPRPRPRPSAFPRP | -0.181
RRIRLRPPRLPRPRPRPSATPRP | 0.321
RRIRLRPPRLPRPRPRPSDKPRP | -0.179
RRIRLRPPRLPRPRPRPSEFPRP | -0.855
RRIRLRPPRLPRPRPRPSEMPRP | -0.0614
RRIRLRPPRLPRPRPRPSFQPRP | -0.514
RRIRLRPPRLPRPRPRPSGAPRP | -0.0192
RRIRLRPPRLPRPRPRPSGNPRP | -0.111
RRIRLRPPRLPRPRPRPSIFPRP | -0.709
RRIRLRPPRLPRPRPRPSLNPRP | -0.625
RRIRLRPPRLPRPRPRPSLTPRP | -0.0866
RRIRLRPPRLPRPRPRPSLYPRP | -0.431
RRIRLRPPRLPRPRPRPSMHPRP | -0.489
RRIRLRPPRLPRPRPRPSMLPRP | -0.965

Sequence | shrunken log2 fold change
RRIRLRPPRLPRPRPRPSNHPRP | -1.15
RRIRLRPPRLPRPRPRPSNNPRP | -0.928
RRIRLRPPRLPRPRPRPSPYPRP | -0.674
RRIRLRPPRLPRPRPRPSQAPRP | 0.182
RRIRLRPPRLPRPRPRPSQDPRP | -0.282
RRIRLRPPRLPRPRPRPSQGPRP | 0.535
RRIRLRPPRLPRPRPRPSRDPRP | 0.152
RRIRLRPPRLPRPRPRPSRSPRP | -0.0638
RRIRLRPPRLPRPRPRPSVWPRP | 0.158
RRIRLRPPRLPRPRPRPSVYPRP | -0.584
RRIRLRPPRLPRPRPRPTAHPRP | 0.0391
RRIRLRPPRLPRPRPRPTCCPRP | -0.013
RRIRLRPPRLPRPRPRPTCNPRP | -0.4
RRIRLRPPRLPRPRPRPTCRPRP | 0.187
RRIRLRPPRLPRPRPRPTCWPRP | 0.393
RRIRLRPPRLPRPRPRPTDDPRP | -0.0495
RRIRLRPPRLPRPRPRPTDIPRP | -0.0682
RRIRLRPPRLPRPRPRPTDNPRP | -0.391
RRIRLRPPRLPRPRPRPTDPPRP | 0.187
RRIRLRPPRLPRPRPRPTDQPRP | 0.0347
RRIRLRPPRLPRPRPRPTEIPRP | -0.15
RRIRLRPPRLPRPRPRPTFIPRP | -0.528
RRIRLRPPRLPRPRPRPTFSPRP | -0.0485
RRIRLRPPRLPRPRPRPTGPPRP | 0.298
RRIRLRPPRLPRPRPRPTHAPRP | 0.029
